{
  "source": "the DeepSol protein solubility set",
  "data": [
    {"assay": "soluble on expression in E. coli; label from the status in PepcDB or PDB records", "values": [
      {"sequence": "MIRTIERIITSTGFSLQHSDNGEITGLFYHCKLSSAYQPVFEAARNNIIGQEARIRADLNGNGEIQLSPWHIFALAPDDEQLIKLDRLCRTIHALNFLDNITNKQMKLFVSVQPRLLESVKDDHGSAFEQILDIIGIRTSRIVIEIPVEANRDWRLLKRVIMNYRAHGYLISVNYSGTNNDRISELGKLYPNVIRIDARDLLRRSVLDPLIVTAHNQGADVLVGNIETSYQLTDAIHAGADLLQGNFLARYSRKADNMLTPFSWQIPDERNGYRFDNESLQENQPYRSI", "soluble on expression in E. coli": "not soluble"},
      {"sequence": "MIRVLLADDHALFRQGLKSLLEAEGDFRVVGEAKDGWEAMRHALETKPDVILMDIQMPGLDGVQATQAILKEWPQAKVIMLTMYRQDAYVFEAVKAGARGYLLKDVDARELVDAIRRVHAGEVLLDAELAGHIIQDFRAKKEASQPLHAELSEREVQILRLVAQGYTNQEIAAELQLSEKTVRNRLSEIFQKLHLNNRTQAALYAIREGLARPEE", "soluble on expression in E. coli": "soluble"},
      {"sequence": "MISKYLVRDVMKKGVVEVTLDTKLSDVIKTMAKYDISSVVVSDGETFWGIITDTDVLKHYNDLDKTAEEIMTTNPITVSPEAPLEKAVEIMAEKGIHHLYVKSPCEDKIVGVLSSKDIIKLFSDLIE", "soluble on expression in E. coli": "soluble"},
      {"sequence": "MISVFDIFKIGIGPSSSHTVGPMKAGKQFTDDLIARHILTDVTRVVVDVYGSLSLTGKGHHTDIAIIMGLAGNLPDTVDIDAIPSFIQDVNTHGRLLLANGQHEVEFPVDKCMNFHADNLSLHENGMRITALAGDKVLYSQTYYSIGGGFIVDEEHFGLTNSEPVNVPYPYKTAADLQRHCQETGLSLSGLMMQNELALHSKEALEQHFARVWEVMRSGIERGITTEGVLPGKLRVPRRAAALRRMLVSQDKTTTDPMAVVDWINMFALAVNEENAAGGRVVTAPTNGACGIVPAVLAYYDKFIREVNANSLARYMLVASAIGSLYKMNASISGAEVGCQGEVGVACSMAAAGLAELLGGSPAQVCIAAEIAMEHNLGLTCDPVAGQVQVPCIERNAIASVKAVNAARMAVRRTSEPRVCLDKVIETMYETGKDMNAKYRETSRGGLAMKIVTCD", "soluble on expression in E. coli": "not soluble"},
      {"sequence": "MISVFDMFKVGIGPSSSHTVGPMKAGKQFIDDLIKRNQFEQTTEIHVDVYGSLSMTGRGHSTDIAIIMGLAGYLPHNVDIDMISGFIEKVKQTALLPINVGQKIVKFDFENNLIFHRTFLKLHENGMTITALDENRTELYRQTYYSIGGGFIVDEAHFGK", "soluble on expression in E. coli": "not soluble"},
      {"sequence": "MITLFTFGPSFGLPDASPFVMKAELLLKMAGLPYQTARGNLRRAPKGKLPYLDDMGRIVADSTLIRWHIEKTYHVDFDEGLSPAERGTAWAVEKLMEDNLYWAVARVRWLERDNFERGPAQFFNVVPGPLRGLVKVLVRRKVRQMLWAQGLGRHSEQDMTAMAVQGIKAITDILGDKPYLMGNNPCGADATLFAFAASLLSPVFETPIRAAAESHPNLIAYMARMRTRYYPDFQGSGVFAPASAATAGRPEAAFGQQLEHHHHHH", "soluble on expression in E. coli": "soluble"},
      {"sequence": "MITLYGFGTGFGLPEISPFVTKTEVQLKMAGLPYRKERAMPPASPKGQLPFIDDGGEAVADSTFIRAHIERRYGFDFDAGLSLQERAQAWAFERMIEHHVYWALVGARWVDPINFAKGPSHFFDGAPEHNREKLREDAQFRVAENYLLSGLGRHAPDDDVDLAVRSLFALSVQLGDKAYLMGNKPCGVDATAFGALAGILTPFFESGLRQRAEGFPNLTAYVDRMMDNYYPEFAWTPLRQAALEHHHHHH", "soluble on expression in E. coli": "not soluble"},
      {"sequence": "MITMKDIIKEGHPTLRKVAEPVPLPPSEEDKRILQSLLDYVKMSQDPELAAKYGLRPGIGLAAPQINVSKRMIAVHVTDENGTLYSYALFNPKIVSHSVQQCYLTTGEGCLSVDRDVPGYVLRYARITVTGTTLDGEEVTLRLKGLPAIVFQHEIDHLNGIMFYDRINPADPFQVPDGAIPIGR", "soluble on expression in E. coli": "soluble"},
      {"sequence": "MITNDHDRRKQISVRGIAQVENVSNIKKAFNRHLHFSIIKDRNVATDRDYYFALANTVRDHLVSRWIRTQQHYYDKDPKRVYYLSLEFYMGRTLSNTMMNLGIQATVDEALYQLGLDIEELQEIEEDAGLGNGGLGRLAACFLDSMATLGIPAYGYGLRYEYGIFKQLIRDGWQIEEPDDWLRFGNPWEKARPEYMLPVNFYGKVVKEDGKSKWIDTQVVFAMPYDTPVPGYKNNIVNTLRLWSAKAENHFHLKFFNDGDYVQAVMDRNLSENITRVLYPNDNMFLGKELRLKQQYFLVAATLQDIIRRFKSSIYGNREAVRVNFETFPDKVAIQLNDTHPSIGIPELIRLLIDVEGLTWDQAWDICIKTYAYTNHTLLPEALERWPVSLMQNLLPRHLEIIYEINQKFMNTISQRFPGDFDRMRRMSIVEEADQFGEKRINMAHLCIVASHAINGVAALHSDLLKSSTFRDFYEFYPDRFQNKTNGITPRRWLLLSNPSLADLIVEKIGESWITNLDELQKLKEYANDAGFLDSIRRVKLENKQQVAQYLSDEYNVNVNAASLFDVHVKRIHEYKRQLLNILHVIALYNRIKENPNIDMVKRTVLYGGKAAPGYHMAKQIIRLITAVAEQVNNDAIVGDRLKVIFLENYRVSMAEKIIPASDLSEQISTAGTEASGTGNMKFMLNGALTIGTLDGANVEMAEEMGDENIFIFGMNVEEVEALTKRGYSSQEFIDKSPMLKQIIEQIEGGMFTPEDPDQLKDLSNMLRYHDRFMVCADFDAFIEAQDKVSATFRDQEKWSRMALYNIASTGKFSTDRTITEYAREIWGIDQFESSLPAPYENEKSE", "soluble on expression in E. coli": "not soluble"},
      {"sequence": "MITPKGTHDAVAKFQKTDLHQDLDYIVLQQRRTQLETLINERESFVKNLCSLFHKIQNTKNYQEFVDVLAENRDLLREIFTVENGFQKQKWISNDDIPQIDWDKFALDINAYIAENDQLLALYEDGLL", "soluble on expression in E. coli": "not soluble"},
      {"sequence": "MITQNIESLNNIAKIQHAANTDYLTDLANRRAFFRSAESRIKEYINKKVPYCLAMIDVDFFKKVNDTYGHDSGDQVLKVIALYMRKHFGAGLTARLGGEEFAVLLHGLDADYLHNKLDDFRREIAVSSIPAGDTSISITLSLGVVFDSEDELSKQMNEADNALYAAKENGRNQIVVFGAELDDLEHHHHHH", "soluble on expression in E. coli": "soluble"},
      {"sequence": "MITSECIIYLARKYQCKFILLGRSAILATEPEWSIGCVDESELKKRIMQHLIEQQEKPTPIKVQNLYKKICQSREIYQTLADIKQGGGEAEYLSIDVTDTSALKSALAPVVARLGRITGIIHGAGNLADKLIEHKTEQDFQTVYNVKIEGLHSLINCVDIAQLKFIALFSSFVSFYGNVGQSDYSLANEILNKYAYLLQRKYPECHVVSFGWGPWDGGMVTPQLKQLFTQKNIKLIPLRVGAEILAEELTQDHTKVPQLIIMSQGISVLPKAFSPEKHSYRLYRRLTLQGNPFVYDHVIGGNAVLPAVCALAWMTNICEQFYPGYHFLSCQKYKVLKGIVFDDNLANLYCLDLTEVEKSEEEIQLEALIWSETPKGIPLYHYRALINISQKSHAQQALTFEDFNYYESSLSLNPYQEGILFHHQRFRGIQKILEITANKLIASCFLPEISPAEQGQFLTQSFNPYTADMFFQCLLIWVRQTYGLGSLPLELTALKQFYTLPFNQEFLINLSIEEQSETKVVASAIAHDIQGKVYLEATNMQVTSSARLNQLFLNNTVASKNTVCMLEHHHHHH", "soluble on expression in E. coli": "not soluble"},
      {"sequence": "MIVDSISSSTASTSSSSPTRGTPIRKSLQCAVCGDVALGKHYGVNACNGCKGFFRRSIWKNRTYACRHGGKCLVAKEQRNACRSCRLTRCLDVGMNPRAVQGDTVEDPEWDEEAMPETLSISTQTDALKVKKKSHTSLFTLDIKKEQIIDNLRAIYARTDPEEFWKLTYPGTYDFRYAFHNTKVVSPRTPLTPTAERIATLNDVVADFRRAFVLFVDILKSIDQLRDVQEDDKMKIAKSRFAAFYWWLCSTWSAKAGCNGVCYSNGSYHPASISDMPKSEGKHGVRIDYSGVSQKSLENLVEPLRRMELSDEERIVGAVMVILADPVPNVSTKTEKILAEARDFYLELLGYCIKLPEEQQGIRVSTMVLLLASIMELVHLTTDNIQLSDVLHVIDLGDWSQELRDHRYRRQF", "soluble on expression in E. coli": "not soluble"},
      {"sequence": "MIVLIDGPSGSGKTTFAGFLGEILGMRIVHFDDLYPGWHGLAAGVKIVTALLEGAGGYHRWDWANNVMGPWVEVPERNLIIEGVGSLAPSVVRAARQHGPVLTMLFDGPEQMRRSRALARDPFYEPWWEMWAEQEARHFATVETPDVTRGYP", "soluble on expression in E. coli": "not soluble"},
      {"sequence": "MIVMTQVRLSELVAPSFYEIHNDIKHNRYTHYWLKGGRGSTKSSFVSIEIILGVMKDPNANAVALRKVKETIKDSVFEQLVWAIEKLKVTEYWEIKHNPMELTYLPTGQKILFRGADKPRKIKSIKVSRGYVKFIWYEEVDEFLGMEEIRIINQSLMRGGEQFVVFYTYNPPNRVNAWVNEEILIDRPDRKVHHSTYLTVPRDWLGEQFFIEAEHLKKVNEKAYRHEYLGEVTGTGGEVFTNVKARKINDEEIKAFDRIKRGLDFGYAVDPAAYIVCHFDKTRRRLYIFHEIFQVGLSNRKLAELIKKENKSNKLVVADSAEPKSIAELRGYGINIRGAKKGPDSVEYGIKFLQDLEEIIIDPERCPNTLREFVNYELEKDKDGNFKAEFPDKNNHTIDAVRYALEDDMRTGGLSILK", "soluble on expression in E. coli": "soluble"},
      {"sequence": "MIVNAFYNEKGVGDTLLIETGEVTFENREWERRGDVARIFDRETKQVAGFNIFNSSKYFDITANGKVDLTEELVALMNQVIEKAGFEPEIVADLTPKFVVGYVESKEKHPNADKLNVCQINVGGEVLQIVCGAPNIDAGQKVVVAKIGAVMPSGLIIKPSNLRGEDSFGMVCAARELAIPNAPTEKGILVLEDSATPGEEFPVNFLEHHHHHH", "soluble on expression in E. coli": "not soluble"},
      {"sequence": "MIYIGLPQWSHPKWVRLGITSLEEYARHFNCVEGNTTLYALPKPEVVLRWREQTTDDFRFCFKFPATISHQAALRHCDDLVTEFLTRMSPLAPRIGQYWLQLPATFGPRELPALWHFLDSLPGEFNYGVEVRHPQFFAKGEEEQTLNRGLHQRGVNQVILDSRPVHAARPHSEAIRDAQRKKPKVPVHAVLTATNPLIRFIGSDDMTQNRELFQVWLQKLAQWHQTTTPYLFLHTPDIAQAPELVHTLWEDLRKTLPEIGAVPAIPQQSSLF", "soluble on expression in E. coli": "soluble"},
      {"sequence": "MIYKNRLLKTIRYNVKATTISPLAIRDDEDNLKIDQLTGKVYIPGSSVAGAFRNYYENYIDKNSNENFNELFGGQKTGMSQIVFYDGYLVNDYVKEMISSRPGIKMDLKRMTVEVSDDAKKSGKKFKRRFLNEGLTFEFVFELNNYEDDAGKFEEKQRKFEELLKAFSIGDISLGSNKMIGYGRFRVDSISKSVFDFTNINDLLKYMLMETDSTEITQDILGREQETSKVRFKIKGKTVTPLLVKDETVRLSNESDGINIKDSRGNYIIPGSSIKGVIRSRAERLHRTFPCIGEEILTNIFGIESKKDDDGHISRLSCFDAVVKNPNKGIYNKIKIDYFTGGVMQGALMNDEVVMGDVEIECTFNTSGLNDYKREIGLLLLVLRDLCKEDLSIGSGYAVGRGYIKAETLELYDGEKLVLDFKSPNREVLKRFDSYISSLMNVG", "soluble on expression in E. coli": "soluble"},
      {"sequence": "MKAEKVRLRKQIIEHMNSLSEEQYTTLSEQIAFSLYAQKEWVEAKTIGITLSMENEVNTYPIIEKAWEEGKKVVVPKCNKGTRTMSFRQINNFDQLETVYMNLREPIPGLTEEVNMDEIDLQIVPGVAYTERGERIGYGGGYYDRYLVHYKGKTLSLAYDFQMVKHIPVEPFDKNIEKIITEKGTLLTNKLVLEHHHHHH", "soluble on expression in E. coli": "soluble"},
      {"sequence": "MKAERILGALYGQALGDAMGMPSELWPRTRVKAHFGWIDRFLPGPKENNAACYFNRAEFTDDTAMALCLADALLECEGNIDPEIIGRNILAWAERFDAFNKNVLGPTSKIALNAIRDGKPIAALENNGVTNGAAMRVSPLGCLLPPTNLTAFIAEVALASSPTHKSDLAVAGAVVVAWAVSRAVNGDTWQSIADSLPAVAHQAQTARITTFSASLSARLELALNIVRHADGVESASEQLYQIIGAGTSTIESVPCAIAMVELANTDPNRCAVLCANLGGDTDTIGAMATAICGALHGVSAINPQLKQTLDEVNQLDFARYAVALASYRQRREALLEHHHHHH", "soluble on expression in E. coli": "soluble"},
      {"sequence": "MKAREILEILNAELLTGEENLDMEFNAACGSDLMSDVMAYVKENVVLLTGLVNPQVIRTAEMMDIKLVVFIRGKRPEEKIIQMAKEKGIAIMTTNDPMFIACGKLYSAGITERGVWD", "soluble on expression in E. coli": "not soluble"}
    ]}
  ]
}
